The values below are quoted from earlier work in patent publication US20140322315A1, “CYSTEAMINE AND/OR CYSTAMINE FOR TREATING ISCHEMIC INJURY” (The Regents of the University of California, priority 2011, published 2014).

The data set relates to acute ischemic stroke.

B1: tPA: tissue plasminogen activator, FDA approved 1996 as therapy for acute ischemic stroke (protein, UniProt P00750 36-562, looked up)
Tissue-type plasminogen …: SYQVICRDEKTQMIYQQHQSWLRPVLRSNRVEYCWCNSGRAQCHSVPVKSCSEPRCFNGGTCQQALYFSDFVCQCPEGFAGKCCEIDTRATCYEDQGISYRGTWSTAESGAECTNWNSSALAQKPYSGRRPDAIRLGLGNHNYCRNPDRDSKPWCYVFKAGKYSSEFCSTPACSEGNSDCYFGNGSAYRGTHSLTESGASCLPWNSMILIGKVYTAQNPSAQALGLGKHNYCRNPDGDAKPWCHVLKNRRLTWEYCDVPSCSTCGLRQYSQPQFRIKGGLFADIASHPWQAAIFAKHRRSPGERFLCGGILISSCWILSAAHCFQERFPPHHLTVILGRTYRVVPGEEEQKFEVEKYIVHKEFDDDTYDNDIALLQLKSDSSRCAQESSVVRTVCLPPADLQLPDWTECELSGYGKHEALSPFYSERLKEAHVRLYPSSRCTSQHLLNRTVTDNMLCAGDTRSGGPQANLHDACQGDSGGPLVCLNDGRMTLVGIISWGLGCGQKDVPGVYTKVTNYLDWIRDNMRP
Take B1: the “improvement in clinical outcome” value (some, but not all, of the controlled trials in acute ischemic stroke) is 30-55%. Moreover, the “complete resolution of symptoms, share of the time” value (thrombolytic therapy with tPA) is recorded as “less than 40%”.
